# T1: Uhrf1 (Np95) SRA domain (mouse, UniProt Q8VDF2 405-613)
# T1 sequence: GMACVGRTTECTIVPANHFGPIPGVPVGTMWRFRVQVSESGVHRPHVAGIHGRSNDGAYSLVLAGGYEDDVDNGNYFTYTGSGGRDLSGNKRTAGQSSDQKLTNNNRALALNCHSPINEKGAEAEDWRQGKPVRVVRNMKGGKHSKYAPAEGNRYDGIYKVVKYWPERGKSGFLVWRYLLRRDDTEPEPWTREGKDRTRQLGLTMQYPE
# B1: CG/5mCG (hemi-methylated 12-bp) (dsDNA)
# DNA 1: CTACCGGATTGC
# DNA 2: GCAATCCGGTAG
# modifications: 5mC at position 7 of strand 2 (GCAATCXGGTAG, X = 5mC)
# Experiments:
# His-GST-MBD1 (1-75) = assay: pull-down; conditions: 2 pg fragment mixed with 10 ug genomic DNA, 4 C overnight, q-PCR read-out, 5mC, PCR product, methylation procedure not detailed, EMSA/competition: 25 mM HEPES-NaOH pH 7.4, 0.1 M NaCl, 0.1 mM TCEP, 250 ng poly(dI-dC)(dI-dC), 30 min, 7.5% native PAGE in 1x TBE
# Uhrf1 (Np95) SRA domain = biological target: T1, Uhrf1 (Np95) SRA domain; assay: EMSA; 0-3 uM SRA, 1 uM DNA, 250 ng poly(dI-dC); EMSA/competition: 25 mM HEPES-NaOH pH 7.4, 0.1 M NaCl, 0.1 mM TCEP, 250 ng poly(dI-dC)(dI-dC), 4 C, 30 min; 7.5% native PAGE in 1x TBE; conditions: protein: recombinant; blunt
Molecule,binding signal (His-GST-MBD1 (1-75)) [% recovered],binding result (Uhrf1 (Np95) SRA domain)
methylated histone H3 DNA fragment,90,
B1,,binds

# Source: paper PMC3858372, “Cell Cycle-Dependent Turnover of 5-Hydroxymethyl Cytosine in Mouse Embryonic Stem Cells”
